Experimental data reported in US20250277023A1 (published 2025).

Columns and labels:
[1] = biological target: T1, PD-L1 (on CHO-PD-L1 cells) (UniProt Q9NZQ7 19-290); assay: FACS binding; Fig. 22
[2] = biological target: T1, PD-L1 (on CHO-PD-L1 cells); assay: FACS binding; Fig. 24

T1 sequence (Q9NZQ7 19-290): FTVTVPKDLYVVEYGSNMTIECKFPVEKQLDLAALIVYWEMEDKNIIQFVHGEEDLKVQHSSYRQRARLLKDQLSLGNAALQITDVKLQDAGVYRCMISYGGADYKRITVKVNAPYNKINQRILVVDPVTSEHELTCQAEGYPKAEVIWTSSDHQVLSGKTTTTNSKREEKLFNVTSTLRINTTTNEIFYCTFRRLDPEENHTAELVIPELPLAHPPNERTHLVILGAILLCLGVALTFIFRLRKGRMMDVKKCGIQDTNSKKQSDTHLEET

| EC50 [1] [nM] | EC50 [2] [nM] | Binder |
| --- | --- | --- |
| 13.7 | – | R1124: PD-L1_VH_IL21R/TIGIT_VL_IL21/TIGIT_VH/PD-L1-VL (bispecific antibody) chain 1: not shown chain 2: not shown heavy: QVQLVQSGAEVKKPGSSVKVSCKASGYSFTSYWMNWVRQAPGQGLEWIGMIRPSDSETRLNQMFKDRVTITVDKSTSTAYMELSSLRSEDTAVYYCAGIHDYGHGAYWGQGTLVTVSSASTKGPSVFPLAPSSKSTSGGTAALGCLVKDYFPEPVTVSWNSGALTSGVHTFPAVLQSSGLYSLSSVVTVPSSSLGTQTYICNVNHKPSNTKVDKRVEPKSCDKTHTCPPCPAPELLGGPSVFLFPPKPKDTLMISRTPEVTCVVVDVSHEDPEVKFNWYVDGVEVHNAKTKPREEQYNSTYRVVSVLTVLHQDWLNGKEYKCKVSNKALPAPIEKTISKAKGQPREPQVYTLPPSREEMTKNQVSLWCLVKGFYPSDIAVEWESNGQPENNYDTTPPVLDSDGSFFLYSDLTVDKSRWQQGNVFSCSVMHEALHNHYTQKSLSLSPGK light: EIVLTQSPDFQSVTPKEKVTITCSVSSSISSSNLHWYQQKPDQSPKLLIYGTSNLASGVPSRFSGSGSGTDFTLTINSLEAEDAATYYCQQWSSYPLTFGQGTKLEIKRTVAAPSVFIFPPSDEQLKSGTASVVCLLNNFYPREAKVQWKVDNALQSGNSQESVTEQDSKDSTYSLSSTLTLSKADYEKHKVYACEVTHQGLSSPVTKSFNRGEC |
| 2.95 | – | R1119: TIGIT_VH_IL18R1_D1D2/TIGIT_VL_IL18/PD-L1-Fab (bispecific antibody) chain 1: QVQLVQSGAEVKKPGSSVKVSCKASGYSFTSYWMNWVRQAPGQGLEWIGMIRPSDSETRLNQMFKDRVTITVDKSTSTAYMELSSLRSEDTAVYYCAGIHDYGHGAYWGQGTLVTVSSGGGGSGGGGSGGGGSGGGGSGCTSRPHITVVEGEPFYLKHCSCSLAHEIETTTKSWYKSSGSQEHVELNPRSSSRIALHDCVLEFWPVELNDTGSYFFQMKNYTQKWKLNVIRRNKHSCFTERQVTSKIVEVKKFFQITCENSYYQTLVNSTSLYKNCKKLLLENNKNPTIKKNAEFEDQGYYSCVHFLHHNGKLFNITKTFNITIVEDRSNIVEPKSSDKTHTCPPCPAPELLGGPSVFLFPPKPKDTLMISRTPEVTCVVVDVSHEDPEVKFNWYVDGVEVHNAKTKPREEQYNSTYRVVSVLTVLHQDWLNGKEYKCKVSNKALPAPIEKTISKAKGQPREPQVYTLPPSREEMTKNQVSLTCRVKGFYPSDIAVEWESNGQPENNYKTTPPVLKSDGSFFLASKLTVDKSRWQQGNVFSCSVMHEALHNHYTQKSLSLSPGK chain 2: not shown heavy: EVQLQESGPGLVKPSETLSLTCAVYGDSITSGYWNWIRKPPGKGLEYMGYISYTGSTYQNPSLKSRITFSRDTSKNQYYLKLSSVTAADTATYYCARSRAWIRTYFDYWGQGTLVTVSSASTKGPSVFPLAPSSKSTSGGTAALGCLVKDYFPEPVTVSWNSGALTSGVHTFPAVLQSSGLYSLSSVVTVPSSSLGTQTYICNVNHKPSNTKVDKRVEPKSCDKTHTCPPCPAPELLGGPSVFLFPPKPKDTLMISRTPEVTCVVVDVSHEDPEVKFNWYVDGVEVHNAKTKPREEQYNSTYRVVSVLTVLHQDWLNGKEYKCKVSNKALPAPIEKTISKAKGQPREPQVYTLPPSREEMTKNQVSLWCLVKGFYPSDIAVEWESNGQPENNYDTTPPVLDSDGSFFLYSDLTVDKSRWQQGNVFSCSVMHEALHNHYTQKSLSLSPGK light: EIVLTQSPDFQSVTPKEKVTITCSVSSSISSSNLHWYQQKPDQSPKLLIYGTSNLASGVPSRFSGSGSGTDFTLTINSLEAEDAATYYCQQWSSYPLTFGQGTKLEIKRTVAAPSVFIFPPSDEQLKSGTASVVCLLNNFYPREAKVQWKVDNALQSGNSQESVTEQDSKDSTYSLSSTLTLSKADYEKHKVYACEVTHQGLSSPVTKSFNRGEC |

More lines, now with the values behind:

| Binder | EC50 [1] [nM] | EC50 [2] [nM] |
| --- | --- | --- |
| R0919 (PD-L1 monoclonal antibody) (antibody, V domains shown) VH: EVQLQESGPGLVKPSETLSLTCAVYGDSITSGYWNWIRKPPGKGLEYMGYISYTGSTYQNPSLKSRITFSRDTSKNQYYLKLSSVTAADTATYYCARSRAWIRTYFDYWGQGTLVTVSS VL: EIVLTQSPDFQSVTPKEKVTITCSVSSSISSSNLHWYQQKPDQSPKLLIYGTSNLASGVPSRFSGSGSGTDFTLTINSLEAEDAATYYCQQWSSYPLTFGQGTKLEIK | 3.38 | – |
| R1082: TIGIT_VH (W108C)_IL15RA/TIGIT_VL(S43C)_IL15/PD-L1-Fab (bispecific antibody) chain 1: QVQLVQSGAEVKKPGSSVKVSCKASGYSFTSYWMNWVRQAPGQGLEWIGMIRPSDSETRLNQMFKDRVTITVDKSTSTAYMELSSLRSEDTAVYYCAGIHDYGHGAYCGQGTLVTVSSGGGGSGGGGSGGGGSGGGGSGITCPPPMSVEHADIWVKSYSLYSRERYICNSGFKRKAGTSSLTECVLNKATNVAHWTTPSLKCIRDPALVHQRPAPPSTVTTAGVTPQPESLSPSGKEPAASSPSSNNTAATTAAIVPGSQLMPSKSPSTGTTEISSHESSHGTPSQTTAKNWELTASASHQPPGVYPQGHSDTTEPKSSDKTHTCPPCPAPELLGGPSVFLFPPKPKDTLMISRTPEVTCVVVDVSHEDPEVKFNWYVDGVEVHNAKTKPREEQYNSTYRVVSVLTVLHQDWLNGKEYKCKVSNKALPAPIEKTISKAKGQPREPQVYTLPPSREEMTKNQVSLTCRVKGFYPSDIAVEWESNGQPENNYKTTPPVLKSDGSFFLASKLTVDKSRWQQGNVFSCSVMHEALHNHYTQKSLSLSPGK chain 2: DIQMTQSPSSLSASVGDRVTITCRASENIYSNLAWYQQKPGKCPKLLVYAASHLPDGVPSRFSGSGSGTDYSLTISSLQPEDFATYYCQHFWGTPRTFGQGTKLEIKGGGGSGGGGSGGGGSGGGGSGNWVNVISDLKKIEDLIQSMHIDATLYTESDVHPSCKVTAMKCFLLELQVISLESGDASIHNTVQDLIILANNSLSSNGNVTESGCKECEELEEKNIKEFLQSFVHIVQMFINTS heavy: QVQLQESGPGLVKPSETLSLTCAVYGDSITSGYWNWIRKPPGKGLEYIGYISYTGSTYQNPSLKSRITMSRDTSKNQYYLKLSSVTAADTAVYYCARSRAWIRTYFDYWGQGTLVTVSSASTKGPSVFPLAPSSKSTSGGTAALGCLVKDYFPEPVTVSWNSGALTSGVHTFPAVLQSSGLYSLSSVVTVPSSSLGTQTYICNVNHKPSNTKVDKRVEPKSCDKTHTCPPCPAPELLGGPSVFLFPPKPKDTLMISRTPEVTCVVVDVSHEDPEVKFNWYVDGVEVHNAKTKPREEQYNSTYRVVSVLTVLHQDWLNGKEYKCKVSNKALPAPIEKTISKAKGQPREPQVYTLPPSREEMTKNQVSLWCLVKGFYPSDIAVEWESNGQPENNYDTTPPVLDSDGSFFLYSDLTVDKSRWQQGNVFSCSVMHEALHNHYTQKSLSLSPGK light: DIQMTQSPSSLSASVGDRVTITCSVSSSISSSNLHWYQQKPGKAPKPWIYGTSNLASGVPSRFSGSGSGTDYTLTISSLQPEDFATYYCQQWSSYPLTFGQGTKLEIKRTVAAPSVFIFPPSDEQLKSGTASVVCLLNNFYPREAKVQWKVDNALQSGNSQESVTEQDSKDSTYSLSSTLTLSKADYEKHKVYACEVTHQGLSSPVTKSFNRGEC | – | 2.78 |
| R1083: TIGIT_VH (L45C)_IL15RA/TIGIT_VL(F98C)_IL15/PD-L1-Fab (bispecific antibody) chain 1: QVQLVQSGAEVKKPGSSVKVSCKASGYSFTSYWMNWVRQAPGQGCEWIGMIRPSDSETRLNQMFKDRVTITVDKSTSTAYMELSSLRSEDTAVYYCAGIHDYGHGAYWGQGTLVTVSSGGGGSGGGGSGGGGSGGGGSGITCPPPMSVEHADIWVKSYSLYSRERYICNSGFKRKAGTSSLTECVLNKATNVAHWTTPSLKCIRDPALVHQRPAPPSTVTTAGVTPQPESLSPSGKEPAASSPSSNNTAATTAAIVPGSQLMPSKSPSTGTTEISSHESSHGTPSQTTAKNWELTASASHQPPGVYPQGHSDTTEPKSSDKTHTCPPCPAPELLGGPSVFLFPPKPKDTLMISRTPEVTCVVVDVSHEDPEVKFNWYVDGVEVHNAKTKPREEQYNSTYRVVSVLTVLHQDWLNGKEYKCKVSNKALPAPIEKTISKAKGQPREPQVYTLPPSREEMTKNQVSLTCRVKGFYPSDIAVEWESNGQPENNYKTTPPVLKSDGSFFLASKLTVDKSRWQQGNVFSCSVMHEALHNHYTQKSLSLSPGK chain 2: DIQMTQSPSSLSASVGDRVTITCRASENIYSNLAWYQQKPGKSPKLLVYAASHLPDGVPSRFSGSGSGTDYSLTISSLQPEDFATYYCQHFWGTPRTCGQGTKLEIKGGGGSGGGGSGGGGSGGGGSGNWVNVISDLKKIEDLIQSMHIDATLYTESDVHPSCKVTAMKCFLLELQVISLESGDASIHNTVQDLIILANNSLSSNGNVTESGCKECEELEEKNIKEFLQSFVHIVQMFINTS heavy: QVQLQESGPGLVKPSETLSLTCAVYGDSITSGYWNWIRKPPGKGLEYIGYISYTGSTYQNPSLKSRITMSRDTSKNQYYLKLSSVTAADTAVYYCARSRAWIRTYFDYWGQGTLVTVSSASTKGPSVFPLAPSSKSTSGGTAALGCLVKDYFPEPVTVSWNSGALTSGVHTFPAVLQSSGLYSLSSVVTVPSSSLGTQTYICNVNHKPSNTKVDKRVEPKSCDKTHTCPPCPAPELLGGPSVFLFPPKPKDTLMISRTPEVTCVVVDVSHEDPEVKFNWYVDGVEVHNAKTKPREEQYNSTYRVVSVLTVLHQDWLNGKEYKCKVSNKALPAPIEKTISKAKGQPREPQVYTLPPSREEMTKNQVSLWCLVKGFYPSDIAVEWESNGQPENNYDTTPPVLDSDGSFFLYSDLTVDKSRWQQGNVFSCSVMHEALHNHYTQKSLSLSPGK light: DIQMTQSPSSLSASVGDRVTITCSVSSSISSSNLHWYQQKPGKAPKPWIYGTSNLASGVPSRFSGSGSGTDYTLTISSLQPEDFATYYCQQWSSYPLTFGQGTKLEIKRTVAAPSVFIFPPSDEQLKSGTASVVCLLNNFYPREAKVQWKVDNALQSGNSQESVTEQDSKDSTYSLSSTLTLSKADYEKHKVYACEVTHQGLSSPVTKSFNRGEC | – | 2.29 |
